Test results taken from US20190383824A1 (OREGON HEALTH AND SCIENCE UNIVERSITY, published 2019).

B2: CoilY probe peptide (peptide)
peptide: MGSSNTVKELKNYIQELEERNAELKNLKEHLKFAKAELEFELAAHKFEGGGAAACLGKLAAALEHHHHHH
modifications: also: label (AF647, rhodamine or biotin) on Cys55 by maleimide, varies between preparations
notes: Recombinant from E. coli, with linker, reactive cysteine and His6 tag; All differently labelled CoilY probes are kept as one molecule; also called Coil5; Zip5

Key:
Mito-7-CoilE-mEmerald = molecular target: T1, Mito-7-CoilE-mEmerald; experiment: colocalisation analysis of micrographs, fixed U-2 OS cells
T1 construct: Expressed in U-2 OS cells; labelled after fixation and permeabilisation; also called mEmerald-CoilE-mito; not shown: mEmerald, engineered green fluorescent protein
T1 chain: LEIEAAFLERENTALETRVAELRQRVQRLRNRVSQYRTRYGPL
Protocol: (§1) U-2 OS cells were transfected with mEmerald-actin-C18, mEmerald-CoilE-actin-C18, H2B-6-mEmerald, H2B-6-CoilE-mEmerald, Mito-7-mEmerald, and Mito-7-CoilE-mEmerald and fixed with 4% PFA 24 hours after transfection. […] Cells were fixed and imaged using with line-scanning confocal microscope.
(§2) The cells labeled as in FIG. 15 at low magnification to capture multiple cells.

H2B-6-CoilE-mEmerald = molecular target: T2, H2B-6-CoilE-mEmerald; experiment: as above
T2 construct: Expressed in U-2 OS cells; labelled after fixation and permeabilisation; also called mEmerald-CoilE-H2B; not shown: histone H2B (H2B-6 construct); mEmerald, engineered green fluorescent protein
T2 chain: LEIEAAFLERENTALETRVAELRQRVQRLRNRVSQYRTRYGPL
Protocol: as §1, §2

mEmerald-CoilE-Actin-C18 = molecular target: T3, mEmerald-CoilE-Actin-C18; experiment: as above
T3 construct: Expressed in U-2 OS cells; labelled after fixation and permeabilisation; also called CoilE-tagged actin; not shown: mEmerald, engineered green fluorescent protein; actin (Actin-C18 construct)
T3 chain: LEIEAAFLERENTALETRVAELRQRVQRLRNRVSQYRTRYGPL
Protocol: as §1, §2

untagged TfR1 = molecular target: T4, untagged TfR1 (UniProt P02786 1-760, limits assumed); experiment: CLEM of CHO TRVb cells, CoilR-biotin detected by streptavidin-QD655
T4 construct: whole, on cells; Expressed in CHO TRVb cells; control without a coil tag; also called transferrin receptor 1; TfR1-TRVb
T4 sequence (P02786 whole entry): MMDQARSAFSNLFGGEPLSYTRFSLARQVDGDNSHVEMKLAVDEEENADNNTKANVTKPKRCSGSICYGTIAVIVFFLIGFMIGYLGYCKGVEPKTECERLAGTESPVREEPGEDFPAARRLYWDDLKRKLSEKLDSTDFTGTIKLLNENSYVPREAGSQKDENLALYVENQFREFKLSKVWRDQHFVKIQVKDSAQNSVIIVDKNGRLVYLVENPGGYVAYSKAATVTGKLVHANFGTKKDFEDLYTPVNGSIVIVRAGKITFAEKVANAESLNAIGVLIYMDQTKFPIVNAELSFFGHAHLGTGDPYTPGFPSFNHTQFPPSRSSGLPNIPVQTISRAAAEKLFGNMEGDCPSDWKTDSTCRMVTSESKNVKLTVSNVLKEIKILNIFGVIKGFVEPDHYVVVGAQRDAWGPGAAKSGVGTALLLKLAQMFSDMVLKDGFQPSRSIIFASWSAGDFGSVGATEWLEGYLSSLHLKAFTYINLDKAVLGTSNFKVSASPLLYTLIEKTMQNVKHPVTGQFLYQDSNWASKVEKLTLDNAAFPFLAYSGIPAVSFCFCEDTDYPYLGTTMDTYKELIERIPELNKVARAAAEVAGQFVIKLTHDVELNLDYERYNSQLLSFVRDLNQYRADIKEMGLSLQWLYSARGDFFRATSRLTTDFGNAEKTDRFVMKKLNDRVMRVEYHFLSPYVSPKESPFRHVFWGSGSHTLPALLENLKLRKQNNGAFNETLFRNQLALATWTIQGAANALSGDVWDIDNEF
From the text: VIP E/R was used for CLEM imaging of TfR1 receptor (FIG. 7). […] This enabled individual cells' locations to be registered relative to the slide so that they may be reimaged again via SEM. After fluorescent cells were mapped, the coverslips were processed for EM imaging.

CoilY-mCherry-TM [1] = molecular target: T5, CoilY-mCherry-TM; experiment: fluorescent blot on PVDF after SDS-PAGE
T5 construct: CoilY fused to the N-terminus of a membrane-targeted mCherry construct; on cells or in HEK293FT lysates; also called CoilY-mCherry-pDisplay
T5 chain: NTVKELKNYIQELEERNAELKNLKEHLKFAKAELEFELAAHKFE

CoilY-mCherry-TM [2] = molecular target: T5, CoilY-mCherry-TM; experiment: two-target imaging of cells, confocal microscopy
CoilY-EGFP-TM [3] = molecular target: T6, CoilY-EGFP-TM; experiment: flow cytometry, live U-2 OS cells
T6 construct: also called CoilY-GFP
T6 chain: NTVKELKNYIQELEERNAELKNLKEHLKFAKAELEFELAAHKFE
Protocol: (§3) Cells were treated with 500 nM AF647-conjugated probe peptide before analysis, and we gated for EGFP-expressing cells.

CoilZ-EGFP-TM [4] = molecular target: T7, CoilZ-EGFP-TM; experiment: flow cytometry, live cells, 300 nM probe
T7 construct: CoilZ fused to the N-terminus of EGFP in pDisplay; also called CoilZ-GFP; CoilZ-EGFP-pDisplay
T7 chain: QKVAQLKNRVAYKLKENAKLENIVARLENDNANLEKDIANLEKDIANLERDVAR

CoilZ-EGFP-TM [5] = molecular target: T7, CoilZ-EGFP-TM; experiment: flow cytometry, live U-2 OS cells, 500 nM probe
Protocol: as §3

CoilZ-EGFP-TM [6] = molecular target: T7, CoilZ-EGFP-TM; experiment: two-target imaging of cells, confocal microscopy, streptavidin-Qdot565 detection
CoilY probe peptide = molecular target: B2; experiment: purified peptides; interferometry is named among the characterisation methods
CoilE-DHFR = molecular target: T8, CoilE-DHFR; experiment: fluorescent blot on PVDF after SDS-PAGE
T8 construct: Lysate and purified protein resolved by SDS-PAGE and blotted on PVDF
T8 chain: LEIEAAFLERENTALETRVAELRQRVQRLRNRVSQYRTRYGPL

CoilY-EGFP-TM [7] = molecular target: T6, CoilY-EGFP-TM; experiment: flow cytometry, live U-2 OS cells, 500 nM probe
Protocol: as §3

B1: CoilR probe peptide (peptide)
peptide: MGGSLEIRAAFLRQRNTALRTEVAELEQEVQRLENEVSQYETRYGPLGGGAAALGCLAAALEHHHHHH
modifications: not fully specified
notes: also called CoilR-Cy5; CoilR-biotin
Mito-7-CoilE-mEmerald
  Pearson's correlation between the mEmerald signal and CoilR-Cy5: 0.89
H2B-6-CoilE-mEmerald
  Pearson's correlation between the mEmerald signal and CoilR-Cy5: 0.9
mEmerald-CoilE-Actin-C18
  Pearson's correlation between the mEmerald signal and CoilR-Cy5: 0.97
Untagged TfR1
  binding result: no binding (tested: 100 nM)
CoilY-mCherry-TM [1]
  binding result: no binding

## B2
CoilY-mCherry-TM [2]
  binding result: no binding (tested: 500 nM)
CoilY-EGFP-TM [3]
  binding result: no binding (tested: 500 nM)
CoilZ-EGFP-TM [4]
  fold increase in AF647 fluorescence: 35 fold
CoilZ-EGFP-TM [5]
  fold enhancement of AF647 fluorescence: > 40 fold

B3: CoilZ probe peptide (peptide)
peptide: MGSSQKVAQLKNRVAYKLKENAKLENIVARLENDNANLEKDIANLEKDIANLERDVARGGGAAACLGKLAAALEHHHHHH
modifications: reporter named in each row (AF647, fluorescein or biotin) conjugated to the reactive cysteine by maleimide chemistry; label state not stated for the biophysical characterisation
notes: Recombinant from E. coli, with linker, reactive cysteine and His6 tag; All differently labelled CoilZ probes are kept as one molecule; also called Coil6; Zip6
CoilZ-EGFP-TM [6]
  binding result: no binding (tested: 500 nM)
CoilY probe peptide
  Kd: 3.6 nM
CoilE-DHFR
  binding result: no binding
CoilY-EGFP-TM [7]
  fold enhancement of AF647 fluorescence: 4 fold
